Test results as given in the PETadex activity labels.

B1: unnamed (protein)
chain: MKTTISPIKGLAIAVAIAMATVAQPALSQTSPPTSASLNATSGPLSVSTASVLLPVGFGGGTIYYPTVAGQYGVIAISPGFTATQSSIAWLGRRIATHGFVVITMDTNTTLDQPDSRATQLMAALRYVLNSSGTAVRSRVDTTRLAVAGHSMGGGGSLIAARDNPTLKASYPMTPWNLSTNFSTVRVPTMIIGADGDTIAPVATHARPFYASLPSTTFKAYGELNNGTHFSPNATSTPIGRYAVAWMKRFVDGDARYSPFLCGAEHTSYATALVFERYNQNCPY
B2: unnamed (protein)
chain: MNEVEPVNKSFLKKLSIGTGVLLVSMNALSWTPSPAPTPDPTPDPTPCQGDCDFTRGPNPTVSSVESSTGPYSVRTQSIASSVSGFGGGTIHYPTNTSGKMGAIAIAPGFLAPESSIIWWGPRLASHGFVVITIATNSVFDQPSSRGTQIGRALDYVISQSNASNSAISGMVDSTRVGAMGWSMGGGGALRLASGDRLSAAIPLAPWHQGGNSFNQLETPTLIIACENDNVAPVDRHASAFYNAIPSTTDKALLEIDGGAHSCANGDGSNDAVLGKYGISWMKRFIDNDLRYDQFLCGPNHAANSAVSEYRETCDY
B3: unnamed (protein)
chain: MTVCKLRMFTAQKHPVTNKIFGGSSMSSRKQDLRLRQLLYCLLLSTALGGAVVHAQTAPATIAQEAFNNGFGIFTAAGSATANGQAVLAGTFGGTDGSITSSPISTQGFSNITVSFDRTTVGLDNGEAGVAEFSVAGGAFTAIESAQTASGRMSFALAASAANQAQLRLRFRVVASRANETYSVDNVLVQGVAAGAQPPPPDPQPTNNPFQRGPTPSAATLEAAQGPFAVATTTVPNPSGFGAGTIYFPTSTTEGPFAAVSIAPGFSERQANVNWWGPRLASNGFVVVVIDTNSTSDAPASRATQLVAALRQVVTLSGTSGSPVFNKVDGNRLGVMGHSLGGGGTLIAAQNNPTLKAAIPFAPFNNDTNFSSVVVPTLIIACENDNVAPVADHASPFYNSFAASLDKAFLEIAGGSHSCANSGNNNMPILGKYGVSWMKLFMDNDTRYSPFLCGAPHQADLSGTQISEYRESCPY
B4: unnamed (protein)
chain: MKIDSIIKFLCTALLVTFSLGVYAGGGGGGDEPSNDGQLPAPDTCTSNCGYANGANPTLSSLQASQGQYSVGTVNVSSSVNGFGGGTIYYPTNLSGELAAIAIAPGFTNTQSAVQWWGPVLASRGFVVVTINTNGRFDFPSSRSRQLDSALNYLIYLGEQSSGAISGKVDKNRLATMGFSMGGGGALESASRNRLSATVPLAPWYSGSNPFNQINVPSMIMACENDGTAGVNTHASPFYNRIPGSTDKVYLELNNGSHNCATGQDSNYRTTISTYGVSWLKRFLDKDSRYNQFLCGPNHVANARISEFRDTCNF
B5: unnamed (protein)
chain: MGGSMKLRSTAMRRRFVVLVAVVMLVVAACDWRGPAPTEQSLVAARGTFTVGTLAVPTSAGFGGGTIYYPGNHDGPFGVISISPGFLGNQSSIGEWGPRLASHGFVVITINTTNGFIQPPQRSTEQRQALSYVVAQGGVSSSPIFGIVDGARRGVAGHSMGGGASLISVQSDPSIKVAVPFAPWNSSANFSAVTSAVLIFACQNDSIAPVGSHASPMYNSIPASTDKSYVSVAGGDHFCANNPTGASGTAGKWALSYFKKFIDGDTRYDPWVCGASKPATGPVLNEVRSSCPF
B6: unnamed (protein)
chain: MTGSTTTGGRPAPPSPPSQSSTTCTTSAVASMPILTPSRVTSAHSVSSCSARNDAGGTCTALTPVVLWAVSAVTTAMPYPPAAATDFRSAWIPAPPPGSDPATDRTLGTCSGDETVGSVDGMGDIPSSVRTASGSTGVISAPGGRTPCREDTVAPVRETVSHRTRPCASPARLPMPRHGVRAEPVGAVIRQRGRTMQHSSIRSRAARRVTAALASLTVAVGLGAASGSVAQAADNPYERGPAPSESSIEATRGHYAVSERNVSRFVSGFGGGTIYYPTTTSDGTFGAVVVSPGYTGTESSIDWLGPRLASQGFVVLTMATNTIYDQPDSRARQLQAALDYLTGSSPVADRIDDDRLALMGHSMGGGGTLRAVDDNPDIKAAIPMTPWHTKKNWSTVTTPTLVFAAENDSVARHETHAEPFYNSFSDDLPKAYLELDGASHFAPNFSNTTIAKYSISWLKRFVDDDSR
B7: unnamed (protein)
chain: MPGYQGTQQNLQWLAPRLASWGFVVINVGTTTLSDDPASRGRQISAAGTQLLALGNATGNPVSGKTDGTLGAVGHSMGGGGVMAALRDDARFRAGVPTAPYYPNMNFSQVTDPTFFLTCQSDPVAHGNTYAAPWYTSMTQAEKLYIEVPGDHLCPMTGSGDKAKQGKWIVSFLSLWLRADTRFSPFLCGPVRDADKNNTSLVTRWMDTCQF

substrate: BHET; conditions: 120 h

Plate clearing, not clears the plate:
B1
B2
B3
B4
B5
B6
B7
